# Laboratory results reported in patent publication US20240301385, “DNA MODIFYING ENZYMES AND ACTIVE FRAGMENTS AND VARIANTS THEREOF AND METHODS OF USE” (LIFEEDIT THERAPEUTICS, INC., published 2024).
# B1: SGN000930 sgRNA ; SGN000930 target (ssRNA ; dsDNA)
# RNA: GAACAACUCAAAUGGAAAUGAAUAUGUCAUAGUUCCAUGAAAGCCAAAAGUGGCUUUGAUGUUUCUAUGAUAAGGGUUUCGGCCCGUGGCGUCGGGGAUCGCCUGCCCAUUCCGAUGGGCUUCUCCCCAUUUAUU
# DNA 1: GAACAACTCAAATGGAAATGAATAT
# DNA 2: ATATTCATTTCCATTTGAGTTGTTC
# Target: T1, APG30128-L32-nAPG07433.1 (synthetic)
# T1 chain: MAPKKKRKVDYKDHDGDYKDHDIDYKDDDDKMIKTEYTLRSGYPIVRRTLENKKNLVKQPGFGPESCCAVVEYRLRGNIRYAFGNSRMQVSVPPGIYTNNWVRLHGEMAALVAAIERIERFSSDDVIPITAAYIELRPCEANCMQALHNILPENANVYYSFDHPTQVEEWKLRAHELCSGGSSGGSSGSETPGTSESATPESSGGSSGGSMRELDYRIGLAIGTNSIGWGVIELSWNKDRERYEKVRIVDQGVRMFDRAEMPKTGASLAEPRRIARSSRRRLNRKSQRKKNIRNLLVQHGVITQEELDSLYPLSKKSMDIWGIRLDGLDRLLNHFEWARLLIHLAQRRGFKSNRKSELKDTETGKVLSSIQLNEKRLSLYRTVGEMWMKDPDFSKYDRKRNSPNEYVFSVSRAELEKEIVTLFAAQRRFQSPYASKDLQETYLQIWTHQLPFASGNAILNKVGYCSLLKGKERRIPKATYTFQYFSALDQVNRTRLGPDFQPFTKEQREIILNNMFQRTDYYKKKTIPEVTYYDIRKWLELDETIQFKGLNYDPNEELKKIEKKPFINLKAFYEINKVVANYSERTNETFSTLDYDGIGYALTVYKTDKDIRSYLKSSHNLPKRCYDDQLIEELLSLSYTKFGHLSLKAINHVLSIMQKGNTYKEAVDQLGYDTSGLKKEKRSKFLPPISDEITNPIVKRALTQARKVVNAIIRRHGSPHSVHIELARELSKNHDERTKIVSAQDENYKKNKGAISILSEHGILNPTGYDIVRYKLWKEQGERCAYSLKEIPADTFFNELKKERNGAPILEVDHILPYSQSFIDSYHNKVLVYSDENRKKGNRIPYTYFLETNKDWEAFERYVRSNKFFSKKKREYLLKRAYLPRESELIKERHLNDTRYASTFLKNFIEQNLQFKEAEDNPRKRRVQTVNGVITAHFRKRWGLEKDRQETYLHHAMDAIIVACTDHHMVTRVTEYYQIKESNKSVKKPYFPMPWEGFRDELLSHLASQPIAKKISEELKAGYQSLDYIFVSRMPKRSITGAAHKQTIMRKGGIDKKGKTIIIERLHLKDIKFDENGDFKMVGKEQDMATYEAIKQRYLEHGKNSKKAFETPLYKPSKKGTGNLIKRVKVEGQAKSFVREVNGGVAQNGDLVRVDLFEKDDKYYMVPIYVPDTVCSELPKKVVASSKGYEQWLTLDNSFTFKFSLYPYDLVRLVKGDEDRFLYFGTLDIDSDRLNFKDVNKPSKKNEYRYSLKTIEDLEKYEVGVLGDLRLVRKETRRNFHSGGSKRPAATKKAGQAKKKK
# Assay: cell_activity; HEK293FT; PAM SEQ 152
# Settings: tags: SV40 NLS, 3xFLAG N-term; nucleoplasmin NLS C-term
# Summary of the method: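 Editing read out by next-generation sequencing (MiSeq 2×250) of PCR amplicons spanning the target site, analysed for INDELs or % cytosine conversion per position (position 1 nearest PAM).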
binder,measurement,value
B1,activity,2.03 % mutated reads
